Experimental data from article PMC3097237, “Exploiting Nucleotide Composition to Engineer Promoters”.

T1: TFIIB (UniProt Q00403)
T1 sequence: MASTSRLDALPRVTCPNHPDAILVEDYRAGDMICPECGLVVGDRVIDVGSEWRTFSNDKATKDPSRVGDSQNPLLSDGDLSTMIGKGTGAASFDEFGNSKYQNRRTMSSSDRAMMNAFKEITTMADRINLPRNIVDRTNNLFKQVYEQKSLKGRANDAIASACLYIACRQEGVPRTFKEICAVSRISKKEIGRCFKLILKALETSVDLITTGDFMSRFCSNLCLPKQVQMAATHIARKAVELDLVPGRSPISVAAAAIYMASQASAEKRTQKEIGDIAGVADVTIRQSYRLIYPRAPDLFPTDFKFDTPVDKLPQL


What was measured:
[1] = molecular target: T1, TFIIB; assay: BLI; settings: BLI (ForteBio Octet QK), streptavidin sensors loaded with biotinylated DNA 25 ug/ml, 1x Kinetics Buffer (ForteBio); salt, pH and temperature not stated
[2] = molecular target: TFIIB (UniProt Q00403 1-316); assay: BLI; kon 3.03E+04 1/Ms; koff 1.93E-03 1/s; 270 nM TFIIB; BLI (ForteBio Octet QK), streptavidin sensors loaded with biotinylated DNA 25 ug/ml, 1x Kinetics Buffer (ForteBio); salt, pH and temperature not stated; settings: protein: commercial; label: 5' biotin (one strand, PCR primer)

Molecule | Kd [1] [nM] | Kd [2] [nM]
AACGGTGCGCGTTAAAACGCCGACGCGTCATAACCGCGACTCGTCGACGCAGCGCCGGCGTATAAGCGCGCCGTACGTCAACCGTCGACGTTAGTCCGACGATCGCGGCGTCTATACGCCGCGTCAATCGCGCGCGGTTCAACGTCGCGCTACGGGCGCGTATAAGTCGCGCGGTTAATACGCGCGGTGTACGCGGATGCCGGGGTCGCGTATAATCGGCGCGTATACCTCGCGCGTATACGCGGCGTATTACGGCCGCGTATAATTCGCGCGTATGGACCGCGTACGTCCTACGAGCGT (double strand) [ArS300] | 64.6 | 
AACGGTGCGCGTTAAAACGGCCGACGCGTCATAACCGCGACTCGTCGACGCAGCGCCGGCGTATAAGCGCGCCGTACGTCAACCGTCGACGTTAGTCCGACGATCGCGGCGTCTATACGCCGCGTCAATCGCGCGCGGTTCAACGTCGCGCTACGGGCGCGTATAAGTCGCGCGTATGGACCGCGTACGTCCTACGAGCGT (double strand) [ArS201] | 77.6 | 
TCGACGCGCGTATAACACGCGAGCGGTTCGAACGTTGGCGCGCTAACGCGAGTCGTACGCCCGTCAACGCGGATCAATCGCGCGACTTGTGCGCGACGTTAGACCGCCGATCGTCAAGCGCCGATCGGTAATCGGACGATTCGGATACGCGAGTTCGGACGTACGAGCGTGATACGGCGCGTAACGGTGCGCGTTAAAACGCCGACGCGTCATAACCGCGACTCGTCGACGC (double strand) [ArS232] | 84.5 | 
ArS110 (dsDNA) DNA 1: CTACGCCGCGTAAATATCGCGCGCTAACGGTGCGCGTTAAAACGCCGACGCGTCATAAAGCGCCGGCGTATAAGCGCGCCGTACGTCGTCGAACCACGTTAGTCCGGACC DNA 2: GGTCCGGACTAACGTGGTTCGACGACGTACGGCGCGCTTATACGCCGGCGCTTTATGACGCGTCGGCGTTTTAACGCGCACCGTTAGCGCGCGATATTTACGCGGCGTAG |  | 63.7
